Article PMC4198062

Target: c-Jun (UniProt P05412)
Experiment: single molecule FRET, surface-immobilized PAGE4
Conditions: reference: PAGE4 P102C expressed alone (nonphosphorylated); sites T51

PAGE4 (from UniProt O60829) PAGE4 P102C coexpressed with GST-HIPK1 in E. coli
other: percent of molecules shifted to low FRET with c-Jun: weaker; reference 70
